Measured values as given in US11433099B2, “Immunotherapy with B*08 restricted peptides and combination of peptides against cancers and related methods” (Immatics Biotechnologies GmbH, priority 2018, dated 2022).

These substances were tested against HLA-B*08:01 (Homo sapiens, UniProt P01889) (assay: MHC binding assay (UV-ligand exchange, beta2m ELISA)). Settings: MHC class I binding score; binding to HLA-B*08:01 ranged by peptide exchange yield (UV-ligand exchange, β2m ELISA).
From the text: Candidate peptides for T cell based therapies according to the present invention were further tested for their MHC binding capacity (affinity). The individual peptide-MHC complexes were produced by UV-ligand exchange, where a UV-sensitive peptide is cleaved upon UV-irradiation and exchanged with the peptide of interest as analyzed. Only peptide candidates that can effectively bind and stabilize the peptide-receptive MHC molecules prevent dissociation of the MHC complexes. To determine the yield of the exchange reaction, an ELISA was performed based on the detection of the light chain (β2m) of stabilized MHC complexes. The assay was performed as generally described in Rodenko et al. (Rodenko et al., 2006).
96 well MAXISorp plates (NUNC) were coated over night with 2 ug/ml streptavidin in PBS at room temperature, washed 4× and blocked for 1 h at 37° C. in 2% BSA containing blocking buffer. Refolded HLA-A*02:01/MLA-001 monomers served as standards, covering the range of 15-500 ng/ml. Peptide-MHC monomers of the UV-exchange reaction were diluted 100-fold in blocking buffer. Samples were incubated for 1 h at 37° C., washed four times, incubated with 2 ug/ml HRP conjugated anti-β2m for 1 h at 37° C., washed again and detected with TMB solution that is stopped with […]. Absorption was measured at 450 nm. Candidate peptides that show a high exchange yield (preferably higher than 50%, most preferred higher than 75%) are generally preferred for a generation and production of antibodies or fragments thereof, and/or T cell receptors or fragments thereof, as they show sufficient avidity to the MHC molecules and prevent dissociation of the MHC complexes.

Substance | Peptide exchange
125 (FPLVTPLL; listed as Homo sapiens) [compound 125] | +++ (50% = +++)
126 (TAAEARLSL; listed as Homo sapiens) [compound 126] | ++ (20% = ++)
127 (EPVIRTVSI; listed as Homo sapiens) [compound 127] | +++ (50% = +++)
128 (HFHNRHVF; listed as Homo sapiens) [compound 128] | +++ (50% = +++)
129 (HRILRLPAL; listed as Homo sapiens) [compound 129] | +++ (50% = +++)
130 (LPAPYQHQL; listed as Homo sapiens) [compound 130] | ++ (20% = ++)
131 (MSTKTTSI; listed as Homo sapiens) [compound 131] | ++ (20% = ++)
132 (IPIQAHQI; listed as Homo sapiens) [compound 132] | +++ (50% = +++)
133 (QATPRVRIL; listed as Homo sapiens) [compound 133] | ++ (20% = ++)
134 (DQRSRATL; listed as Homo sapiens) [compound 134] | ++ (20% = ++)
135 (EYLETKRLAF; listed as Homo sapiens) [compound 135] | + (0% = +)
136 (KMFYRKDVM; listed as Homo sapiens) [compound 136] | +++ (50% = +++)
137 (VQWKPPAL; listed as Homo sapiens) [compound 137] | ++ (20% = ++)
138 (TQHLTVATL; listed as Homo sapiens) [compound 138] | +++ (50% = +++)
139 (YGRIGISLF; listed as Homo sapiens) [compound 139] | ++ (20% = ++)
140 (IAVDKPITL; listed as Homo sapiens) [compound 140] | ++ (20% = ++)
141 (AQLKLVAL; listed as Homo sapiens) [compound 141] | ++ (20% = ++)
142 (YNLIYSMCL; listed as Homo sapiens) [compound 142] | +++ (50% = +++)

Substance | Peptide exchange
143 (DADLREQAL; listed as Homo sapiens) [compound 143] | ++ (20% = ++)
144 (IEQIRAVL; listed as Homo sapiens) [compound 144] | ++ (20% = ++)
145 (MIYRKALRL; listed as Homo sapiens) [compound 145] | ++ (20% = ++)
146 (FQTAHFYL; listed as Homo sapiens) [compound 146] | +++ (50% = +++)
147 (HAMDGASHL; listed as Homo sapiens) [compound 147] | ++ (20% = ++)
148 (DVNPVSLQL; listed as Homo sapiens) [compound 148] | ++ (20% = ++)
149 (TQKSVQVL; listed as Homo sapiens) [compound 149] | ++ (20% = ++)
150 (MRSSYIREL; listed as Homo sapiens) [compound 150] | ++ (20% = ++)
151 (DRHLTNRVL; listed as Homo sapiens) [compound 151] | ++ (20% = ++)
152 (FNKLVTEL; listed as Homo sapiens) [compound 152] | ++ (20% = ++)
153 (HAIPHYVTM; listed as Homo sapiens) [compound 153] | ++ (20% = ++)
154 (VLKTLQEL; listed as Homo sapiens) [compound 154] | ++ (20% = ++)
155 (LPASFPAVL; listed as Homo sapiens) [compound 155] | ++ (20% = ++)
156 (ILKEQSSSSF; listed as Homo sapiens) [compound 156] | ++ (20% = ++)
157 (QPYRFPQA; listed as Homo sapiens) [compound 157] | ++ (20% = ++)
158 (DVIIKGNGL; listed as Homo sapiens) [compound 158] | ++ (20% = ++)
159 (DLRNKIIA; listed as Homo sapiens) [compound 159] | ++ (20% = ++)

The remaining lines, values ahead:

Peptide exchange | Substance
++ (20% = ++) | 160 (LPINNTHI; listed as Homo sapiens) [compound 160]
++ (20% = ++) | 161 (DIVPPFSAF; listed as Homo sapiens) [compound 161]
++ (20% = ++) | 162 (LFKQTKINL; listed as Homo sapiens) [compound 162]
++ (20% = ++) | 163 (EVMAQFKEI; listed as Homo sapiens) [compound 163]
++ (20% = ++) | 164 (LPAPIPTLL; listed as Homo sapiens) [compound 164]
++ (20% = ++) | 165 (QNSLRHNL; listed as Homo sapiens) [compound 165]
++ (20% = ++) | 166 (VLSGGRILAL; listed as Homo sapiens) [compound 166]
+++ (50% = +++) | 167 (DMKITVSL; listed as Homo sapiens) [compound 167]
++ (20% = ++) | 168 (HVQDFTAF; listed as Homo sapiens) [compound 168]
++ (20% = ++) | 169 (YELNNLHAL; listed as Homo sapiens) [compound 169]
++ (20% = ++) | 170 (SPANVRGQSL; listed as Homo sapiens) [compound 170]
++ (20% = ++) | 171 (FPSQVPKQVL; listed as Homo sapiens) [compound 171]
++ (20% = ++) | 172 (PYEKVSRL; listed as Homo sapiens) [compound 172]
+++ (50% = +++) | 173 (YPLLKDPSL; listed as Homo sapiens) [compound 173]
++ (20% = ++) | 174 (HAMPSPRIL; listed as Homo sapiens) [compound 174]
+ (0% = +) | 175 (MRFQQFLFA; listed as Homo sapiens) [compound 175]
++ (20% = ++) | 176 (YVIQRQSVL; listed as Homo sapiens) [compound 176]
++ (20% = ++) | 177 (SVPVRSSPL; listed as Homo sapiens) [compound 177]
++ (20% = ++) | 178 (IPRLAVISI; listed as Homo sapiens) [compound 178]
+++ (50% = +++) | 179 (LPLTEHEL; listed as Homo sapiens) [compound 179]

Peptide exchange | Substance
++ (20% = ++) | 180 (LAVPIFVAL; listed as Homo sapiens) [compound 180]
++ (20% = ++) | 181 (SIRSSYSRF; listed as Homo sapiens) [compound 181]
++++ (75% = ++++) | 182 (ILHLSAIAL; listed as Homo sapiens) [compound 182]
++ (20% = ++) | 183 (YVSKPGAQL; listed as Homo sapiens) [compound 183]
++ (20% = ++) | 184 (DRLKPLKM; listed as Homo sapiens) [compound 184]
++ (20% = ++) | 185 (MELKTVKPI; listed as Homo sapiens) [compound 185]
++ (20% = ++) | 186 (DLISPRQPRL; listed as Homo sapiens) [compound 186]
++ (20% = ++) | 187 (VPYNSVLF; listed as Homo sapiens) [compound 187]
++ (20% = ++) | 188 (EIMEKTTL; listed as Homo sapiens) [compound 188]
++ (20% = ++) | 189 (APDNVLLTL; listed as Homo sapiens) [compound 189]
++ (20% = ++) | 190 (ELLNRIYF; listed as Homo sapiens) [compound 190]
++ (20% = ++) | 191 (RPLKPGEVL; listed as Homo sapiens) [compound 191]
++ (20% = ++) | 192 (EEKHFTTL; listed as Homo sapiens) [compound 192]
++ (20% = ++) | 193 (LGGLRLTAL; listed as Homo sapiens) [compound 193]
+++ (50% = +++) | 194 (RAIEHVLQV; listed as Homo sapiens) [compound 194]
++ (20% = ++) | 195 (EGNQKSVI; listed as Homo sapiens) [compound 195]
++ (20% = ++) | 196 (LDLRQKVL; listed as Homo sapiens) [compound 196]
++ (20% = ++) | 197 (YKAYPSQL; listed as Homo sapiens) [compound 197]
+++ (50% = +++) | 198 (FPLTSIIAI; listed as Homo sapiens) [compound 198]
++ (20% = ++) | 199 (IPFIHLPEI; listed as Homo sapiens) [compound 199]
